Assay results reported in patent US20240270846A1 (published 2024).

The binders below were run against T1, CD3 epsilon homodimer protein (UniProt P07766 23-126) (assay: SPR Biacore T200, antibody over immobilised CD3e homodimer;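 also: CD3 epsilon homodimer amine-coupled on a CM4 chip, run at 25 °C in HBS-EP+, Z = bound amount of each single-residue H chain variant over that of the parent antibody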).
T1 construct: also called CD3 (CD3 epsilon)
T1 sequence (P07766 23-126): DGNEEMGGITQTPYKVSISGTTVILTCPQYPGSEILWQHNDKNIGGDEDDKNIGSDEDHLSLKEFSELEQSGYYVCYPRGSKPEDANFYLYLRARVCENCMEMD
Description: An appropriate amount of CD3 epsilon homodimer protein was immobilized onto Sensor chip CM4 (GE Healthcare Japan Corp.) by the amine coupling method. Then, the antibody having an appropriate concentration was injected thereto as an analyte and allowed to interact with the CD3 epsilon homodimer protein on the sensor chip. Then, the sensor chip was regenerated by the injection of 10 mmol/L glycine-HCl (pH 1.5). The assay was conducted at 25 degrees C., and HBS-EP+(GE Healthcare Japan Corp.) was used as a running buffer. […] Each parameter was calculated using Biacore T200 Evaluation Software (GE Healthcare Japan Corp.).
Specifically, when the amount of the antibody comprising CE115HA000 bound was defined as X and the amount of the H chain one-amino acid altered form bound was defined as Y, a value of Z (ratio of amounts bound)=Y/X was used.

| ratio of amounts bound (Z=Y/X vs CE115HA000) | Binder |
| --- | --- |
| 0.17 | CE115HA000 K52F one-arm antibody (antibody, human IgG1, kappa, L234A L235A, N297A, name in Kabat numbering, one-arm antibody) heavy: QVQLVESGGGVVQPGRSLRLSCAASGFTFSNAWMHWVRQAPGKGLEWVAQIFAKSNNYATYYAESVKGRFTISRDDSKNSLYLQMNSLKTEDTAVYYCRYVHYGAYYGVDAWGQGTTVTVSSASTKGPSVFPLAPSSKSTSGGTAALGCLVKDYFPEPVTVSWNSGALTSGVHTFPAVLQSSGLYSLSSVVTVPSSSLGTQTYICNVNHKPSNTKVDKKVEPKSCDKTHTCPPCPAPEAAGGPSVFLFPPKPKDTLMISRTPEVTCVVVDVSHEDPEVKFNWYVDGVEVHNAKTKPREEQYASTYRVVSVLTVLHQDWLNGKEYKCKVSNKALPAPIEKTISKAKGQPREPQVYTLPPSRCELTKNQVSLSCAVKGFYPSDIAVEWESNGQPENNYKTTPPVLDSDGSFFLVSKLTVDKSRWQQGNVFSCSVMHEALHNHYTQKSLSLSPDYKDDDDK EPKSSDKTHTCPPCPAPELLGGPSVFLFPPKPKDTLMISRTPEVTCVVVDVSHEDPEVKFNWYVDGVEVHNAKTKPREEQYNSTYRVVSVLTVLHQDWLNGKEYKCKVSNKALPAPIEKTISKAKGQPREPQVCTLPPSRDELTKNQVSLWCLVKGFYPSDIAVEWESNGQPENNYKTTPPVLDSDGSFFLYSKLTVDKSRWQQGNVFSCSVMHEALHNRYTQKSLSLSP light: DIVMTQSPLSLPVTPGEPASISCRSSQSLVHSNRNTYLHWYQQKPGQAPRLLIYKVSNRFSGVPDRFSGSGSGTDFTLKISRVEAEDVGVYYCGQGTQVPYTFGQGTKLEIKRTVAAPSVFIFPPSDEQLKSGTASVVCLLNNFYPREAKVQWKVDNALQSGNSQESVTEQDSKDSTYSLSSTLTLSKADYEKHKVYACEVTHQGLSSPVTKSFNRGEC |
| 0.22 | CE115HA000 K52H one-arm antibody (antibody, human IgG1, kappa, L234A L235A, N297A, name in Kabat numbering, one-arm antibody) heavy: QVQLVESGGGVVQPGRSLRLSCAASGFTFSNAWMHWVRQAPGKGLEWVAQIHAKSNNYATYYAESVKGRFTISRDDSKNSLYLQMNSLKTEDTAVYYCRYVHYGAYYGVDAWGQGTTVTVSSASTKGPSVFPLAPSSKSTSGGTAALGCLVKDYFPEPVTVSWNSGALTSGVHTFPAVLQSSGLYSLSSVVTVPSSSLGTQTYICNVNHKPSNTKVDKKVEPKSCDKTHTCPPCPAPEAAGGPSVFLFPPKPKDTLMISRTPEVTCVVVDVSHEDPEVKFNWYVDGVEVHNAKTKPREEQYASTYRVVSVLTVLHQDWLNGKEYKCKVSNKALPAPIEKTISKAKGQPREPQVYTLPPSRCELTKNQVSLSCAVKGFYPSDIAVEWESNGQPENNYKTTPPVLDSDGSFFLVSKLTVDKSRWQQGNVFSCSVMHEALHNHYTQKSLSLSPDYKDDDDK EPKSSDKTHTCPPCPAPELLGGPSVFLFPPKPKDTLMISRTPEVTCVVVDVSHEDPEVKFNWYVDGVEVHNAKTKPREEQYNSTYRVVSVLTVLHQDWLNGKEYKCKVSNKALPAPIEKTISKAKGQPREPQVCTLPPSRDELTKNQVSLWCLVKGFYPSDIAVEWESNGQPENNYKTTPPVLDSDGSFFLYSKLTVDKSRWQQGNVFSCSVMHEALHNRYTQKSLSLSP light: DIVMTQSPLSLPVTPGEPASISCRSSQSLVHSNRNTYLHWYQQKPGQAPRLLIYKVSNRFSGVPDRFSGSGSGTDFTLKISRVEAEDVGVYYCGQGTQVPYTFGQGTKLEIKRTVAAPSVFIFPPSDEQLKSGTASVVCLLNNFYPREAKVQWKVDNALQSGNSQESVTEQDSKDSTYSLSSTLTLSKADYEKHKVYACEVTHQGLSSPVTKSFNRGEC |
| 0.28 | CE115HA000 K52S one-arm antibody (antibody, human IgG1, kappa, L234A L235A, N297A, name in Kabat numbering, one-arm antibody) heavy: QVQLVESGGGVVQPGRSLRLSCAASGFTFSNAWMHWVRQAPGKGLEWVAQISAKSNNYATYYAESVKGRFTISRDDSKNSLYLQMNSLKTEDTAVYYCRYVHYGAYYGVDAWGQGTTVTVSSASTKGPSVFPLAPSSKSTSGGTAALGCLVKDYFPEPVTVSWNSGALTSGVHTFPAVLQSSGLYSLSSVVTVPSSSLGTQTYICNVNHKPSNTKVDKKVEPKSCDKTHTCPPCPAPEAAGGPSVFLFPPKPKDTLMISRTPEVTCVVVDVSHEDPEVKFNWYVDGVEVHNAKTKPREEQYASTYRVVSVLTVLHQDWLNGKEYKCKVSNKALPAPIEKTISKAKGQPREPQVYTLPPSRCELTKNQVSLSCAVKGFYPSDIAVEWESNGQPENNYKTTPPVLDSDGSFFLVSKLTVDKSRWQQGNVFSCSVMHEALHNHYTQKSLSLSPDYKDDDDK EPKSSDKTHTCPPCPAPELLGGPSVFLFPPKPKDTLMISRTPEVTCVVVDVSHEDPEVKFNWYVDGVEVHNAKTKPREEQYNSTYRVVSVLTVLHQDWLNGKEYKCKVSNKALPAPIEKTISKAKGQPREPQVCTLPPSRDELTKNQVSLWCLVKGFYPSDIAVEWESNGQPENNYKTTPPVLDSDGSFFLYSKLTVDKSRWQQGNVFSCSVMHEALHNRYTQKSLSLSP light: DIVMTQSPLSLPVTPGEPASISCRSSQSLVHSNRNTYLHWYQQKPGQAPRLLIYKVSNRFSGVPDRFSGSGSGTDFTLKISRVEAEDVGVYYCGQGTQVPYTFGQGTKLEIKRTVAAPSVFIFPPSDEQLKSGTASVVCLLNNFYPREAKVQWKVDNALQSGNSQESVTEQDSKDSTYSLSSTLTLSKADYEKHKVYACEVTHQGLSSPVTKSFNRGEC |
| 0.34 | CE115HA000 K52N one-arm antibody (antibody, human IgG1, kappa, L234A L235A, N297A, name in Kabat numbering, one-arm antibody) heavy: QVQLVESGGGVVQPGRSLRLSCAASGFTFSNAWMHWVRQAPGKGLEWVAQINAKSNNYATYYAESVKGRFTISRDDSKNSLYLQMNSLKTEDTAVYYCRYVHYGAYYGVDAWGQGTTVTVSSASTKGPSVFPLAPSSKSTSGGTAALGCLVKDYFPEPVTVSWNSGALTSGVHTFPAVLQSSGLYSLSSVVTVPSSSLGTQTYICNVNHKPSNTKVDKKVEPKSCDKTHTCPPCPAPEAAGGPSVFLFPPKPKDTLMISRTPEVTCVVVDVSHEDPEVKFNWYVDGVEVHNAKTKPREEQYASTYRVVSVLTVLHQDWLNGKEYKCKVSNKALPAPIEKTISKAKGQPREPQVYTLPPSRCELTKNQVSLSCAVKGFYPSDIAVEWESNGQPENNYKTTPPVLDSDGSFFLVSKLTVDKSRWQQGNVFSCSVMHEALHNHYTQKSLSLSPDYKDDDDK EPKSSDKTHTCPPCPAPELLGGPSVFLFPPKPKDTLMISRTPEVTCVVVDVSHEDPEVKFNWYVDGVEVHNAKTKPREEQYNSTYRVVSVLTVLHQDWLNGKEYKCKVSNKALPAPIEKTISKAKGQPREPQVCTLPPSRDELTKNQVSLWCLVKGFYPSDIAVEWESNGQPENNYKTTPPVLDSDGSFFLYSKLTVDKSRWQQGNVFSCSVMHEALHNRYTQKSLSLSP light: DIVMTQSPLSLPVTPGEPASISCRSSQSLVHSNRNTYLHWYQQKPGQAPRLLIYKVSNRFSGVPDRFSGSGSGTDFTLKISRVEAEDVGVYYCGQGTQVPYTFGQGTKLEIKRTVAAPSVFIFPPSDEQLKSGTASVVCLLNNFYPREAKVQWKVDNALQSGNSQESVTEQDSKDSTYSLSSTLTLSKADYEKHKVYACEVTHQGLSSPVTKSFNRGEC |
| 0.91 | CE115HA000 K52R one-arm antibody (antibody, human IgG1, kappa, L234A L235A, N297A, name in Kabat numbering, one-arm antibody) heavy: QVQLVESGGGVVQPGRSLRLSCAASGFTFSNAWMHWVRQAPGKGLEWVAQIRAKSNNYATYYAESVKGRFTISRDDSKNSLYLQMNSLKTEDTAVYYCRYVHYGAYYGVDAWGQGTTVTVSSASTKGPSVFPLAPSSKSTSGGTAALGCLVKDYFPEPVTVSWNSGALTSGVHTFPAVLQSSGLYSLSSVVTVPSSSLGTQTYICNVNHKPSNTKVDKKVEPKSCDKTHTCPPCPAPEAAGGPSVFLFPPKPKDTLMISRTPEVTCVVVDVSHEDPEVKFNWYVDGVEVHNAKTKPREEQYASTYRVVSVLTVLHQDWLNGKEYKCKVSNKALPAPIEKTISKAKGQPREPQVYTLPPSRCELTKNQVSLSCAVKGFYPSDIAVEWESNGQPENNYKTTPPVLDSDGSFFLVSKLTVDKSRWQQGNVFSCSVMHEALHNHYTQKSLSLSPDYKDDDDK EPKSSDKTHTCPPCPAPELLGGPSVFLFPPKPKDTLMISRTPEVTCVVVDVSHEDPEVKFNWYVDGVEVHNAKTKPREEQYNSTYRVVSVLTVLHQDWLNGKEYKCKVSNKALPAPIEKTISKAKGQPREPQVCTLPPSRDELTKNQVSLWCLVKGFYPSDIAVEWESNGQPENNYKTTPPVLDSDGSFFLYSKLTVDKSRWQQGNVFSCSVMHEALHNRYTQKSLSLSP light: DIVMTQSPLSLPVTPGEPASISCRSSQSLVHSNRNTYLHWYQQKPGQAPRLLIYKVSNRFSGVPDRFSGSGSGTDFTLKISRVEAEDVGVYYCGQGTQVPYTFGQGTKLEIKRTVAAPSVFIFPPSDEQLKSGTASVVCLLNNFYPREAKVQWKVDNALQSGNSQESVTEQDSKDSTYSLSSTLTLSKADYEKHKVYACEVTHQGLSSPVTKSFNRGEC |
| 0.33 | CE115HA000 K52I one-arm antibody (antibody, human IgG1, kappa, L234A L235A, N297A, name in Kabat numbering, one-arm antibody) heavy: QVQLVESGGGVVQPGRSLRLSCAASGFTFSNAWMHWVRQAPGKGLEWVAQIIAKSNNYATYYAESVKGRFTISRDDSKNSLYLQMNSLKTEDTAVYYCRYVHYGAYYGVDAWGQGTTVTVSSASTKGPSVFPLAPSSKSTSGGTAALGCLVKDYFPEPVTVSWNSGALTSGVHTFPAVLQSSGLYSLSSVVTVPSSSLGTQTYICNVNHKPSNTKVDKKVEPKSCDKTHTCPPCPAPEAAGGPSVFLFPPKPKDTLMISRTPEVTCVVVDVSHEDPEVKFNWYVDGVEVHNAKTKPREEQYASTYRVVSVLTVLHQDWLNGKEYKCKVSNKALPAPIEKTISKAKGQPREPQVYTLPPSRCELTKNQVSLSCAVKGFYPSDIAVEWESNGQPENNYKTTPPVLDSDGSFFLVSKLTVDKSRWQQGNVFSCSVMHEALHNHYTQKSLSLSPDYKDDDDK EPKSSDKTHTCPPCPAPELLGGPSVFLFPPKPKDTLMISRTPEVTCVVVDVSHEDPEVKFNWYVDGVEVHNAKTKPREEQYNSTYRVVSVLTVLHQDWLNGKEYKCKVSNKALPAPIEKTISKAKGQPREPQVCTLPPSRDELTKNQVSLWCLVKGFYPSDIAVEWESNGQPENNYKTTPPVLDSDGSFFLYSKLTVDKSRWQQGNVFSCSVMHEALHNRYTQKSLSLSP light: DIVMTQSPLSLPVTPGEPASISCRSSQSLVHSNRNTYLHWYQQKPGQAPRLLIYKVSNRFSGVPDRFSGSGSGTDFTLKISRVEAEDVGVYYCGQGTQVPYTFGQGTKLEIKRTVAAPSVFIFPPSDEQLKSGTASVVCLLNNFYPREAKVQWKVDNALQSGNSQESVTEQDSKDSTYSLSSTLTLSKADYEKHKVYACEVTHQGLSSPVTKSFNRGEC |
